± gives the half width of the 95% confidence interval.
Columns and labels:
[1] = folding stability dG unfold from trypsin proteolysis; higher = more stable
Procedure, shortened: (§1)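 Mini-proteins designed to be under 80 residues and free of cysteine were carried in a PA-tagged cDNA display construct and digested with trypsin and with chymotrypsin. Each protease was applied at 11 threefold-diluted concentrations, alongside a no-protease condition, before sequencing. K50 came from Bayesian fitting of the sequencing counts, and unfolding free energy was obtained by comparing it with a sequence-predicted unfolded-state K50 and a shared folded-state K50, for each protease separately or for both together. Designs were retained only if their AlphaFold2 dimer inter-PAE exceeded 15.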

[2] = folding stability dG unfold from chymotrypsin proteolysis; higher = more stable
Procedure, shortened: as §1

[3] = folding stability dG unfold (combined trypsin and chymotrypsin); higher = more stable
Procedure, shortened: as §1

Sequence	folding stability dG unfold [1]	folding stability dG unfold [2]	folding stability dG unfold [3]
SAGGSAGGSAGGDTVEIELRAFFPETGLIITPTITIDKNGKIISINPRIEPLPPPLEGILSAGGSAGGSAGG [r7_135_TrMRF]	0.341 ± 0.069 kcal/mol	-0.253 ± 0.1 kcal/mol	0.0659 ± 0.23 kcal/mol
SAGRIHFMDSPSQARDQAEENNYPIVIGMDKGSGWMQIAIYKGGKPKPIRQIPPNNPEINRFIKKLGFTSAG [r5_458_TrROS]	0.149 ± 0.093 kcal/mol	-0.14 ± 0.16 kcal/mol	0.0603 ± 0.14 kcal/mol
SAGGSAGGSAGGSEKEVEISVVLPDGYVLRVRVREVSEDGEEVEVEVELVKVKPGQKLLSAGGSAGGSAGGS [r4_72_TrROS_Hall]	1.57 ± 0.051 kcal/mol	1.37 ± 0.079 kcal/mol	1.5 ± 0.15 kcal/mol
SAGGSAGGSAGKAVFIRELENGAIVLAVPFPDSVRLRVFPLTPGGEVESVEEFTLAPEELSAGGSAGGSAGG [r11_88_TrMRF]	-0.0256 ± 0.16 kcal/mol	0.842 ± 0.088 kcal/mol	0.591 ± 0.08 kcal/mol
SAGGSAEKPEIGAEIVTYKDKDKPLYIVAVPFFDENGNLVGVLVKEFDNPEEAKEFLEALGFGKIESAGGSA [r15_127_TrMRF]	1.55 ± 0.14 kcal/mol	1.68 ± 0.038 kcal/mol	1.56 ± 0.12 kcal/mol
SAGYEIVKEIAEELGFPVEIDRIEYDPDHGTIKFTARMRPKDGKKYRVQIMIHVPPENGNVDIELEYVPSAG [r5_929_TrROS]	2.09 ± 0.074 kcal/mol	2.6 ± 0.16 kcal/mol	2.56 ± 0.2 kcal/mol
SAGGSAGGKKLYIVKIKIKNENGEEIEITLVFETEEQLKEALESLPIKNVKIEDVEIIPLEELKSAGGSAGG [r6_296_TrROS_Hall]	1.88 ± 0.051 kcal/mol	3.39 ± 0.098 kcal/mol	3 ± 0.063 kcal/mol
SAGGSMMKVTIVDKDGKERVFTFPKDMTEEEVLERIKKELEAEGVEVEEVEVERREDGSLVIRVKKSAGGSA [r2_148_TrROS_Hall]	4.16 ± 0.4 kcal/mol	3.71 ± 0.064 kcal/mol	3.93 ± 0.14 kcal/mol
SAGGSRVEVEVEVEGDTLRVRLRVYSEGGPPLLEAEAELPLGPVPPLPPVEVRVDPLEEEYPAKYFSAGGSA [r2_332_TrMRF]	2.82 ± 0.14 kcal/mol	2.28 ± 0.17 kcal/mol	2.5 ± 0.31 kcal/mol
SAGGSAGGSAGYIWIPAKDFAKYIAEEHEEKGYQINIPVEVRPDNWVWIDIEIQPLKPGQSAGGSAGGSAGG [r11_214_TrROS]	0.644 ± 0.048 kcal/mol	1.3 ± 0.096 kcal/mol	1.04 ± 0.086 kcal/mol
SVKTSSSMAPPDRIVLKITDPETDKVTTITVPLDLPEDEPVAVHDPEAPSERTVAEIKALAEAGKSVSGLSA [r9_250_JUSTAS]	-0.176 ± 0.16 kcal/mol	-0.55 ± 0.35 kcal/mol	-0.142 ± 0.18 kcal/mol
SAGGKPPKTVTVTLTLPDGVKITIEYNEETGEVTVTIEVFKDGKLVKTITITAPSLDEALEALKKLLSAGGS [r16_55_TrROS_Hall]	3.25 ± 0.23 kcal/mol	4.19 ± 0.18 kcal/mol	3.87 ± 0.13 kcal/mol
SAGGSAKITVEVVVRSLEELEALVKALAPPGMEVEVKIVSVERRTVEVNGEKREVLVVRVEIEVKPSAGGSA [r15_95_TrROS_Hall]	4.61 ± 0.37 kcal/mol	3.09 ± 0.17 kcal/mol	3.9 ± 0.33 kcal/mol
SAGGSAGGEEEETVTLTLEVEVEAEVKVEKNADGEETEVEVKVKRVRVRLTLTLTKEELEKLLKSAGGSAGG [r6_119_TrROS_Hall]	2.59 ± 0.14 kcal/mol	4.17 ± 0.15 kcal/mol	3.54 ± 0.31 kcal/mol
SAGGIWIKVPDGGWVRIQIEHPGNGRPREETIPGGDIKDLIKSLSSSPDFPNYKVKIEVWDGGKPKPISAGG [r13_914_TrROS]	0.923 ± 0.03 kcal/mol	1.71 ± 0.058 kcal/mol	1.46 ± 0.14 kcal/mol
SMKVKIKIEVYKPENKLIVKVYFPEIGKEIVFEFDSLEGLFEKIKKELGLKEENIEIVEVKVKEVDPSELSA [r9_909_TrMRF]	2.21 ± 0.16 kcal/mol	1.93 ± 0.048 kcal/mol	2.2 ± 0.18 kcal/mol
SETVTVTVTVTVTLYRRRPDGKWVPIAELTVTVTRTVEKEDEEEARRAVREEVEDELRKLAEELGVEIEPSA [r9_356_TrROS_Hall]	3.94 ± 0.095 kcal/mol	5.79 ± 0.12 kcal/mol	5.6 ± 0.15 kcal/mol
SAGGSAGGSAGGKKYKITVPFKTKDGSGKPITSNFGKKKLEEILKKHPELKPAIEKALKKSAGGSAGGSAGG [r7_637_TrMRF]	-0.163 ± 0.33 kcal/mol	1.37 ± 0.22 kcal/mol	0.771 ± 0.29 kcal/mol
SAGGSAGGSRIVIHWDPDGMFMIEIRDPGESRTFMFDGPEEAENFADKIEDKLGLPVEVTEIYSAGGSAGGS [r12_783_TrROS]	0.69 ± 0.024 kcal/mol	0.681 ± 0.11 kcal/mol	0.747 ± 0.099 kcal/mol
SAGGSAGGPEVTITVEEKDGYLVLTVTVPPGVERLELTIEVNGKLVTLELELKPGQTLTFVLPPSAGGSAGG [r6_971_TrROS_Hall]	4.6 ± 0.3 kcal/mol	3.86 ± 0.12 kcal/mol	3.97 ± 0.13 kcal/mol
SAFKIDPNGHIRIMISQDDLKQMSIEEINNLVKELAKAFPPPMKVEIHIMPPPPKPKPPPKRDDDGKPKSAG [r14_312_TrROS]	1.54 ± 0.053 kcal/mol	0.66 ± 0.13 kcal/mol	1.1 ± 0.18 kcal/mol

Sequence	folding stability dG unfold [1]	folding stability dG unfold [2]	folding stability dG unfold [3]
SAGGSAGGSASPAPDTLYVPVVFDVVFPLPDGSYVLVPVLAYYQLPGGTLLASVRFAVTFDSAGGSAGGSAG [r3_484_TrMRF]	2.77 ± 0.16 kcal/mol	4.28 ± 0.098 kcal/mol	3.86 ± 0.2 kcal/mol
SAGGSAGGSSPDNKPVPPRFMIHVEIEPIKIPPEMREAAKDDPDNIDEIYVITIDVYFVGDDFSAGGSAGGS [r12_196_TrROS]	2.22 ± 0.063 kcal/mol	2.81 ± 0.07 kcal/mol	2.58 ± 0.074 kcal/mol
SAGGSAGGSAMLLPSEEEAEKAAAELRAKTGWRVTVEKVGTGEDGTVVYRLTVVPPDLPLESAGGSAGGSAG [r3_59_JUSTAS]	2.84 ± 0.048 kcal/mol	3.234 ± 0.019 kcal/mol	3.12 ± 0.06 kcal/mol
SAGGSAGGSALELIKEIAEEHNIPVDIEPTGNKIRVEIEMPNPDGQPVKHTIEIPIPPDENQSAGGSAGGSA [r18_27_TrROS]	0.389 ± 0.11 kcal/mol	1.08 ± 0.078 kcal/mol	0.975 ± 0.2 kcal/mol
SAGGSAGGSAGNKKAEEIKKILEEKGFEVVSVKVYKPKGNKPVVKIEVKAKNGKKFTILASAGGSAGGSAGG [r11_780_TrMRF]	2.96 ± 0.2 kcal/mol	3.28 ± 0.039 kcal/mol	3.22 ± 0.2 kcal/mol
SAGGMSPELAADPNVKRVLRFPEPGVFLAYYPEKGLLLLTPPDGKVLLIEAKPEEAEKLVESGLKPESAGGS [r16_745_TrMRF]	0.028 ± 0.12 kcal/mol	-0.446 ± 0.19 kcal/mol	-0.0606 ± 0.13 kcal/mol
SAGGSALEVKPGAGNTLTVYTPLPEDIPISEVIEELKKKYPNITAETDETSDGVAVVTLTLPPGLGSAGGSA [r15_1047_JUSTAS]	0.984 ± 0.051 kcal/mol	0.401 ± 0.25 kcal/mol	0.724 ± 0.12 kcal/mol
KKITIIIPSPDGYWVVIKIEWPNGRPINVFFRSPEELLNEIQRQLGMYPENFEITDIEVMPPDDLKEAMDNS [r1_119_TrROS]	2.77 ± 0.1 kcal/mol	3.39 ± 0.12 kcal/mol	3.22 ± 0.11 kcal/mol
SAGGSAGGSAGMIKKVKISRTSDGTVTRTTEYLETDKPGVPKVVTTEVETVTLAPSEPLFSAGGSAGGSAGG [r11_517_JUSTAS]	-1.11 ± 0.51 kcal/mol	0.911 ± 0.039 kcal/mol	0.507 ± 0.084 kcal/mol
SAMEITETSLDSSTLYTFPGRRITITTTPDSYTITITLPDGTPVTLNFPPTMPLDEVKKKVIETLLASSSAG [r14_618_JUSTAS]	0.935 ± 0.05 kcal/mol	1.24 ± 0.16 kcal/mol	1.19 ± 0.12 kcal/mol
SAGGSAGGSGMEKIVVEVKFPDGTVETYEFPAGVPVNIDPAVTGDVKITTLDPEGKTTEYVLKSAGGSAGGS [r12_380_JUSTAS]	-0.0804 ± 0.046 kcal/mol	-0.297 ± 0.2 kcal/mol	-0.118 ± 0.1 kcal/mol
SAGGSAGGSSMYTYPELGVKVTTTPLPTDSTLVTATFPDGSVYKFTVDPSGNLVTSTPIVVNSSAGGSAGGS [r12_56_JUSTAS]	0.326 ± 0.018 kcal/mol	1.01 ± 0.064 kcal/mol	0.784 ± 0.06 kcal/mol
SAGGSAGGSAWITINDVRDYLKKEGIDPKNMSAEEIASEFKDKWPNVNIEAQPNGSAWIKPSAGGSAGGSAG [r3_375_TrROS]	0.785 ± 0.054 kcal/mol	0.535 ± 0.36 kcal/mol	0.814 ± 0.14 kcal/mol
SAGPKAEIINKNGKKISFSAKNIKITSYPEKGILTGIIPKKNKKIEIKVDNNKITLIVYDGGKYKEFPISAG [r5_786_TrMRF]	2.07 ± 0.071 kcal/mol	3.97 ± 0.22 kcal/mol	2.21 ± 0.55 kcal/mol
SAGGSMVLLSEETIGDIKIKTYKDPNGGVITVIEKPGERTIEFIYPDGILTIEFPPDGTKKYSFDPIGSAGG [r13_246_JUSTAS]	2.01 ± 0.049 kcal/mol	2.32 ± 0.071 kcal/mol	2.29 ± 0.1 kcal/mol
SAGGSAGGSAGMPVITVDVYEDDNTYTITITLSDGTPVVVTVTSPDTPVEEAVAAVIAALSAGGSAGGSAGG [r11_313_JUSTAS]	3.45 ± 0.15 kcal/mol	2.77 ± 0.16 kcal/mol	3.16 ± 0.16 kcal/mol
SAGGSAGGSKLKLEIPPGFKNVEIEVLKYNPDNGYIRVKITIYDPNNGKQFTMDRWIPADDLKSAGGSAGGS [r12_964_TrROS]	1.62 ± 0.099 kcal/mol	1.65 ± 0.16 kcal/mol	1.56 ± 0.19 kcal/mol
SAGMVIAKVTVKLPNGETKTFVIEAESPEELEEQIIKELEKEYGVSPEEFPIVEIKVEFYDPEKGGLLLSAG [r5_482_TrMRF]	2.13 ± 0.089 kcal/mol	2.23 ± 0.033 kcal/mol	2.2 ± 0.11 kcal/mol
SAGGSAGGEWVIINIMFRFPPGDPNIKIEIKFPGLPKDMKIEYSIFPTDNWYYIMVSIWVPPNASAGGSAGG [r6_482_TrROS]	3.66 ± 0.29 kcal/mol	5.16 ± 0.15 kcal/mol	4.85 ± 0.34 kcal/mol
SAGGSAMEIEVTLTDPALLEALIAELPYPVEVSEDPTDPSVTRVTLRTETSAEEVREAVARALGLESAGGSA [r15_118_JUSTAS]	0.732 ± 0.037 kcal/mol	1.27 ± 0.06 kcal/mol	1.07 ± 0.081 kcal/mol
SAGGSAGGSASAEEEARRLAPEGKLVYKITKGNETTIVALTPEEAEALKKKNPDVEIEPILLSAGGSAGGSA [r18_198_JUSTAS]	1.37 ± 0.035 kcal/mol	3.176 ± 0.021 kcal/mol	2.81 ± 0.087 kcal/mol

— the supplement of paper PMC12764529
